Data published in patent publication US20180264102A1.

How the values were obtained:
[1] = biological target: Hoc- Soc- bacteriophage T4 capsid (Soc binding sites) (bacteriophage T4) (UniProt P04535)
[2] = biological target: Hoc- Soc- bacteriophage T4 capsid (Soc binding sites) (bacteriophage T4) (UniProt P04535); assay: in vitro binding to Hoc- Soc- T4 phage, SDS-PAGE

## Soc-PA (93 kDa) recombinant protein with RB49 Soc
[1]
  Kd: 737 nM
  percent occupancy of the 870 Soc binding sites: 42%
[2]
  ratio of antigen molecules to Soc binding sites at saturation (antigen molecules : Soc binding sites): 20

## F1mutV-Soc (66 kDa) recombinant protein with RB49 Soc
[1]
  Kd: 298 nM
  percent occupancy of the 870 Soc binding sites: 75%
[2]
  ratio of antigen molecules to Soc binding sites at saturation (antigen molecules : Soc binding sites): 20
